Assay results from US20180044385A1 (published 2018).

B1: WT (other)
chain: LTPAVTTYKLVINGKTLKGETTTKAVDAATAEKVFKQYANDNGVDGEWTYDDATKTFTVTEKPEVI
B2: A1 (designed binder)
chain: MKGETTTEAVDAATAEKVFKQYANDNGVDGEWTYDDATKTFTVTEKPEVIDASELTPAVTTYKLVINGRTLSGYTTTTAVDAATAEKVFKQYAYVHEVDGEWTYDDATKTFTVTEKPEVIDASELTPAVTTYKLVINGRTLSGETTTKAVDAETAEKAFKQYANDNGVDGVWTYDDATKTFTVTE

Target: human IgG1 scaffold
Assay: SPR

Kd [µM] | Binder
3 | B1
0.024 | B2
